Data published in the DeepSol protein solubility set.

Test: soluble on expression in E. coli; label from the status in PepcDB or PDB records

Sequence | soluble on expression in E. coli
MSLTSHLLKAEIHCHLEGAAPPALVVKQAEKYGIDTSGFLRDGQYVWSDFAEFIQCYDAVAQVFKSDEDYAVLTETYLTELAEANTIYSELIISPDHGDRIGLGADAYLAGVAEGIRIAKEKTGIETRIIVTGERHFGPERVIAAAEYAARIRHPLVTGFNMAGEERMGRVADYARAFDIARDAGLGLTIHAGEVCGPESVADALDLVKPSRIGHGVRAIEDAALISRLVETGTVLEVCPGSNIALSVYPDFASHPLKALSDAGVRVCISSDDPPFFFTSLAREYALAADAFGFNDAEINRMTRTALECAFVDEATRERLLARLGDAEGHHHHHH | soluble
MSLTAPRILMTRPDHYGVTYAINPWMTPESWAGNQTVALAEAATQWQALADALGAVGFALEILPGQPGLPDMVFPANAAIVFDGIALVARFRHPERQGEEAHFHAAFEALRQRGLLSAVHSLPEGVFQEGAGDCLWDASRQLFFAAHGPRSSRASIEVIAETFGQEIVRLELVDPRFYHLDTCFCVLPGGEVLTFTPALSTASLERLRAVVAPEMLIEADFAAASAFSINAVAHGREVVMANPPASLRALLEERGYHVHGLELGRFMQSGGGSYCMTLRLDRRARAEGHHHHHH | soluble
MAHHHHHHMNEVVPHVAELMTDQYANFLIQKLFDMMPQDVRYKVARVAAPKIISIALTPHGTFSVQKMVETIASREEMDILREALSKDVVRLVKDAHGNHVIQKVLQRFSHADKEFIYAAVGSDCISIAKNKQGCCVLQRCLEYASCSQRATLVNQILRCCLQIAEDPFGNYVLQYVLESNDSKTTDTIAIAFLPHLVQLCMNKFSSNVIEKVLRGASQPVQEMYVETMCSPDVVSRLIQDDFGNYVLQTALTICSSAQAESLVSAVRPLMPIIRNAPYAKKLEGKIDGIVHKTAGNDRNSFAEYEKSRQGEMNEQNCDILLPHHARESSVAPHQQLSS | not soluble
MKSEETQPFGITIEGVELSDGDVQFADKSLPLPFSTSIHTLSGEVSTLSSDSSEPARVKFEGEVAEYGLAQVNGTVHAWHPTRQTTINVRFRNLQIPEYSPYTVNFAGRKIADGTMDLDLDYTVNEEKLDGQNNLVLHDLKLGEKMESSDAMDLPLDLAIALLQDSDGLEHHHHHH | soluble
MGSDKIHHHHHHMENLKTYFYTEDGVVKAVDGVSFEVREGETLGIVGESGSGKSVTSLSIMRLLDQNGKIVDGKIIFKGRNLLELSENEMRKIRGKEIAMIFQEPMVALNPVFTIGDQIMEAIILHQNVSEKEARKMAIDLLRKVGIPEPEKRVDEYPHQLSGGMRQRAMIAMALSCRPSLLIADEPTTALDVTIQAQILELMKELQKEYGMAIILITHDMGVVAEMSDKVAVMYAGKVVEYGDVKTIFTEPKHPYTYALLESIPRIDVEQERLKSIPGNVPDPLNFPPGCKFHPRCEFFEKGKCDVEEPELEDLDGNHKVRCFFWQKLDEMRHAKSEV | not soluble
STLPRFDSVDLGNAPVPADAARRFEELAAKAGTGEAWETAEQIPVGTLFNEDVYKDMDWLDTYAGIPPFVHGPYATMYAFRPWTIRQFAGFSTAKESNAFYRRNLAAGQKGLSVAFDLPTHRGYDSDNPRVAGDVGMAGVAIDSIYDMRELFAGIPLDQMSVSMTMNGAVLPILALYVVTAEEQGVKPEQLAGTIQNDILKEFMVRNTYIYPPQPSMRIISEIFAYTSANMPKWNSISISGYHMQEAGATADIEMAYTLADGVDYIRAGESVGLNVDQFAPRLSFFWGIGMNFFMEVAKLRAARMLWAKLVHQFGPKNPKSMSLRTHSQTSGWSLTAQDVYNNVVRTCIEAMAATQGHTQSLHTNSLDEAIALPTDFSARIARNTQLFLQQESGTTRVIDPWSGSAYVEELTWDLARKAWGHIQEVEKVGGMAKAIEKGIPKMRIEEAAARTQARIDSGRQPLIGVNKYRLEHEPPLDVLKVDNSTVLAEQKAKLVKLRAERDPEKVKAALDKITWAAGNPDDKDPDRNLLKLCIDAGRAMATVGEMSDALEKVFGRYTAQIRTISGVYSKEVKNTPEVEEARELVEEFEQAEGRRPRILLAKMGQDGHDRGQKVIATAYADLGFDVDVGPLFQTPEETARQAVEADVHVVGVSSLAGGHLTLVPALRKELDKLGRPDILITVGGVIPEQDFDELRKDGAVEIYTPGTVIPESAISLVKKLRASLDA | soluble
MSLFKIRMPETVAEGTRLALRAFSLVVAVDERGGIGDGRSIPWNVPEDMKFFRDVTTKLRGKNVKPSPAKRNAVVMGRKTWDSIPPKFRPLPGRLNVVLSSTLTTQHLLDGLPDEEKRNLHADSIVAVNGGLEQALQLLASPNYTPSIETVYCIGGGSVYAEALRPPCVHLLQAIYRTTIRASESSCSVFFRVPESGTEAAAGIEWQRETISEELTSANGNETKYYFEKLIPRNREEEQYLSLVDRIIREGNVKHDRTGVGTLSIFGAQMRFSLRNNRLPLLTTKRVFWRGVCEELLWFLRGETYAKKLSDKGVHIWDDNGSRAFLDSRGLTEYEEMDLGPVYGFQWRHFGAAYTHHDANYDGQGVDQIKAIVETLKTNPDDRRMLFTAWNPSALPRMALPPCHLLAQFYVSNGELSCMLYQRSCDMGLGVPFNIASYALLTILIAKATGLRPGELVHTLGDAHVYSNHVEPCNEQLKRVPRAFPYLVFRREREFLEDYEEGDMEVIDYAPYPPISMKMAV | soluble
MAHHHHHHHRSDASVIVVGAGPAGLMLAGELRLGGVDVMVLEQLPQRTGESRGLGFTARTMEVFDQRGILPAFGPVETSTQGHFGGRPVDFGVLEGAHYGVKAVPQSTTESVLEEWALGRGAELLRGHTVRALTDEGDHVVVEVEGPDGPRSLTTRYVVGCDGGRSTVRKAAGFDFPGTSASREMFLADIRGCEITPRPIGETVPLGMVMSAPLGDGVDRIIVCERGAPARRRTGPPPYQEVAAAWQRLTGQDISHGEPVWVSAFGDPARQVSAYRRGRVLLAGDSAHVHLPAGGQGMNVSVQDSVNLGWKLAAVVSGRAPAGLLDTYHEERHPVGRRLLMNTQAQGMLFLSGDEMQPLRDVLSELIRYDEVSRHLAGMVSGLDIRYEVDGGDHPLLGMRMPHQELVRAHGKTSTTELLHPARGVLLDIADDAEVREAATGWSDRVDIVTASLHDAPPQGPLSDARAVLVRPDGYVAWISPGSRAGLTEALDRWFGPAR | soluble
MDPELQAIREARLAQLKNNSGGTNGDRNSGANNGGGENSAPVGAAIANFLEPQALERLSRVALVRRDRAQAVETYLKKLIATNNVTHKITEAEIVSILNGIAKQQNSQNNSKIIFERKDFSEDLNSFDKQNAKN | not soluble
GAMAPERPLVGVNGLDVTSLRPFDLVIPFTIKKGEITGEVRMPSGKVAQPTITDNKDGTVTVRYAPSEAGLHEMDIRYDNMHIPGSPLQFYVDYVNCGHVTAYGPGLTHGVVNKPATFTVNTKDAGEGGLSLAIEGPSKAEISCTDNQDGTCSVSYLPVLPGDYSILVKYNEQHVPGSPFTARVTGDD | soluble
MSFLQHYKSGNLVLPSALLFHYKDIFSNADDFLVWQFFYFQNTTKMEDIATSQIATAIGKTVPEVNRSVSNLISQELLDMKTIELDGESEVLFDATLALKKLDDLLTAADETTVSSSKGISNALKDLVEDFERELGRMLSPFELEDLQKTVSDDKTDPDLVRSALREAVFNGKTNWNYIQAILRNWRHEGISTLRQVEERRKEREQANPANVTVSDDFLSAMNLWSDSDAR | not soluble
MTTMTIKNAMVLAAGLGTRMRPITDTIPKPLVKIAGKPMIDYALDALVEAGAETIVVNVHHHAEQMISHLGHRTDAEILISDERTQLMNSGGGLAKGLKLLKPGPVFVMNADLFWIGERLNAVSNLRKLAQFLDPARMDMALLCVDMDRTTGHNGKRDFNLAGEGKLTRYRDGDANPVVYAGAIAMDSRLLDDAPADAFNLNIYFDRAIEKDRLFGLSLDGHWITVGTPDAIDDAESIIRQFREKRFALEHHHHHH | not soluble
MDLSQGPVRAAQAAPQVLCTASVHHDHPHAIETLVEALGPVELELILLMASPQTDIPALLARAAAVLPGTRIVGCTTAGEISAAGYTEGEIVAIGMPRAYFKAQTMLIDDLTDYDAQAIIDRMIQTRNDLAAARPEWGHEFNFLLIDGLSTLEDRLVSDLAMGLGPVPLFGGSAGDGERFGTTFVFHEGRAHGNAAVLMQVRTRCPIQVFKTDHLIPTEKRMVVTGADPDRRLVHEINAEPAAREYARVLGKDPEQLTTFTFAAHPVVVRIGGQHHVRSIQRVAENGDLVFFSAIDEGLVLTLAEARDMREHLREELGRLAADGPPAVILGCDCLLRRMEAQQKQVLGALSDILRENRVVGFSTYGEQFNSMHVNQTLTGVAIYPPDDM | soluble
MGSDKIHHHHHHVETSASVMEPFLQLLRGNNLRWRSFGLTRQDGNVSETEAIPNPQDTVDTHPWGRYVAMGDSFTEGIGDPEPGSPGGHRGWADRVAEELSRGHSDFAYANLAVRGRLLEQIVDQQLAPCLALKPDLVTLSAGGNDLIRPGGDPDALAEKLDSVVHILSLGGATVVLFNGPDTGSSVLGRVRSKIAIYNENLRTVAARHDAVIADMWSLRQLSDPQMWDQDRLHFSPLGHHTIAAMVLDSLNIRHTLEPLSPKPLPQRSWREARSGDLVWAREYFVPWVVRRLRHQSSGDGVTAKRPTPGPVFGPGMPLGSGEAPGIEAEQR | not soluble
MFEKWIGLTLLLNSLAYPCQKVTISFKQYENLLHIHQKGCDNEVMCRTLISIALLESSLGLNNRREKSLKDTSYSMFHITLNTAKKFYPTYSKTLLKFKLLNDVGFAIQLAKQILKENFDYYKQKHPNKSVYQLVEMAIGAYNGGMKHNPNGAYVKKFRCIYSQVRYNE | not soluble
MKSLITAGLVFSLIASSYSAQAEEKQSGDLAADIGAVGIPVIAGSIALYKEDYDGFWMFAKGATYTLAATQALKYTVKEERPNGEDNLSFPSGHSSSAFQGASYLQFRYGWEYGVPAYIGASLVGYSRVENEHHYWRDVIAGAVLATTIQYLVTDKYLDSNSVMIAPVINDDHVGIAASFSF | not soluble
MGSDKIHHHHHHQAIAPAPADPAAALMPSPWSGSSGELGYASAHGNSTTDSLNGRIRLRYTDGDWIHSLDATALRSSSEYTNTNDDGSVTRERQTTAERYTGSAGSALQLGEHRQLTATGRYEHDDFATYDRLATFGIGYGTRLIDADRFYLDAQIGPGIRRAHNSDDDRNETGLIGRGLFDLKYTVTDNTDLINTLLVESGEYNTYAQNDFGVQVSMNSHFALKAAWQMRHNSDVSEGDKKTDTLTTVNLVYTFK | not soluble
MAETKIVVGPQPFSVGEEYPWLAERDEDGAVVTFTGKVRNHNLGDSVNALTLEHYPGMTEKALAEIVDEARNRWPLGRVTVIHRIGELWPGDEIVFVGVTSAHRSSAFEAGQFIMDYLKTRAPFWKREATPEGDRWVEARESDQQAAKRW | soluble
MSLSSLDAVLSQDLIVADGPAVEVGDSLEVAYTGWLFQNHVLGQVFDSTANKDKLLRLKLGSGKVIKGWEDGMLGMKKGGKRLLIVPPACAVGSEGVIGWTQATDSILVFEVEVRRVKFAREGHHHHHH | not soluble
MEASKDISRLIEIMEALRQPETGCPWDVVQTFETIKPYTIEEAYEVADAIERKDMDDLCDELGDLLLQVVFHARIAEERGEFTFGDVVHAVTSKMIRRHPHVFDVSDADTPDSVKLQWDQIKAEEKRERAERRARRGITEDFKAGFLGGVQRSQPALTEALKLQEQAARVGFDWSDPAPILDKIEEEIAELREALAEGKPEKVSDELGDLIFALVNIGRHVKADPEDALRGTNTKFRRRFNHIETSLSDNGETLKEASLERMEDLWQAAKRIERSLDTVSS | not soluble
MVKVYGSTVDNESRCTHYQTPLDIIAIKFKCCNKYYPCYKCHNEHESHKIQRWQANEFHEKAILCGVCNHEMTINDYMMIEACPKCDAHFNNRCKYHYHLYFEILEHHHHHH | soluble
